Results reported in the supplement of paper PMC10065799, “High-throughput profiling of sequence recognition by tyrosine kinases and SH2 domains using bacterial peptide display” (eLife, 2023).

How the values were obtained:
SHP2-C SH2 = assay: SH2 binding enrichment of the phosphorylated peptide, bacterial display (enrichment ratio); higher = better substrate or ligand; peptides without Tyr show the background
c-Src SH2 = assay: as above
Grb2 SH2 = Grb2 SH2 (UniProt P62993); assay: as above
c-Abl (mouse) = assay: phosphorylation enrichment, bacterial display (enrichment ratio); higher = better substrate or ligand; peptides without Tyr show the background
FGFR1 = FGFR1 (UniProt P11362); assay: as above
EPHB1 = EPHB1 (UniProt P54762); assay: as above
Hck = Hck (UniProt P08631); assay: as above
MERTK = MERTK (UniProt Q12866); assay: as above
EPHB2 = EPHB2 (UniProt P29323); assay: as above
Jak2 = Jak2 (UniProt O60674); assay: as above
Fyn = Fyn (UniProt P06241); assay: as above
Fer (mouse) = assay: as above
Fes = Fes (UniProt P07332); assay: as above
AncSZ = assay: as above
FGFR3 = FGFR3 (UniProt P22607); assay: as above
c-Src = assay: as above
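For SH2 binding enrichment of the phosphorylated peptide, bacterial display in this document: peptide library displayed on the E. coli surface as eCPX fusions, selected cells deep-sequenced, score is each peptide's frequency after selection divided by its frequency in the input.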
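For phosphorylation enrichment, bacterial display in this document: 11-residue human phosphosite peptides and single-mutation variants displayed on the E. coli surface, counted by deep sequencing, each peptide's frequency after selection divided by its frequency in the unselected input library; frequency after pTyr selection over input frequency; kinase dosed for 20-30% of maximal phosphorylation in three min.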

EPHB1, sequence (P54762 whole entry, looked up): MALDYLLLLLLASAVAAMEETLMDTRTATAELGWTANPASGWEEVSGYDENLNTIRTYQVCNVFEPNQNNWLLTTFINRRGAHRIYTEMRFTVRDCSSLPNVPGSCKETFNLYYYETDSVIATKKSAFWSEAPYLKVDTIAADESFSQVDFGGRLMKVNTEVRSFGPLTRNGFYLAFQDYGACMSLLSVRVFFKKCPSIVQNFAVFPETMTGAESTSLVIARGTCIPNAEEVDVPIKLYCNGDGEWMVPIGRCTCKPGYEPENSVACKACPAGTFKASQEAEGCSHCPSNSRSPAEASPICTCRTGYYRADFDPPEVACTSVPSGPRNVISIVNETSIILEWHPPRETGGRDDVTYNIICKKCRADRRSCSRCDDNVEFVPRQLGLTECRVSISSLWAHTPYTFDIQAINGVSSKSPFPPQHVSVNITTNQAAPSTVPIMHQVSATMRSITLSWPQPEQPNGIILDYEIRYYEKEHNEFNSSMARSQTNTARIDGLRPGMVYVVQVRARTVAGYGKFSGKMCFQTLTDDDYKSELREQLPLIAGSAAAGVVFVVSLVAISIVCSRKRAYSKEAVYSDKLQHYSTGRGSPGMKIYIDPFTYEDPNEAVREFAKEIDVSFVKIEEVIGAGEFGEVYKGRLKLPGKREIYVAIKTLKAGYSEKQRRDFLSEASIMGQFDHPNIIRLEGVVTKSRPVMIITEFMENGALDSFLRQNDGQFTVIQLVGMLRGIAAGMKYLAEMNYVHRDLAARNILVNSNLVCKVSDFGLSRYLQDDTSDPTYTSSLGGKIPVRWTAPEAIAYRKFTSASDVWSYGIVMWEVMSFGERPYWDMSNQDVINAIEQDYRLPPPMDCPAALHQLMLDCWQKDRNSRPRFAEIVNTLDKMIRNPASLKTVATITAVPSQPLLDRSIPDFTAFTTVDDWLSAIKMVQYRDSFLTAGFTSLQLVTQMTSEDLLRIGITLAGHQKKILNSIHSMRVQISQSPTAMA
Jak2, sequence (O60674 whole entry, looked up): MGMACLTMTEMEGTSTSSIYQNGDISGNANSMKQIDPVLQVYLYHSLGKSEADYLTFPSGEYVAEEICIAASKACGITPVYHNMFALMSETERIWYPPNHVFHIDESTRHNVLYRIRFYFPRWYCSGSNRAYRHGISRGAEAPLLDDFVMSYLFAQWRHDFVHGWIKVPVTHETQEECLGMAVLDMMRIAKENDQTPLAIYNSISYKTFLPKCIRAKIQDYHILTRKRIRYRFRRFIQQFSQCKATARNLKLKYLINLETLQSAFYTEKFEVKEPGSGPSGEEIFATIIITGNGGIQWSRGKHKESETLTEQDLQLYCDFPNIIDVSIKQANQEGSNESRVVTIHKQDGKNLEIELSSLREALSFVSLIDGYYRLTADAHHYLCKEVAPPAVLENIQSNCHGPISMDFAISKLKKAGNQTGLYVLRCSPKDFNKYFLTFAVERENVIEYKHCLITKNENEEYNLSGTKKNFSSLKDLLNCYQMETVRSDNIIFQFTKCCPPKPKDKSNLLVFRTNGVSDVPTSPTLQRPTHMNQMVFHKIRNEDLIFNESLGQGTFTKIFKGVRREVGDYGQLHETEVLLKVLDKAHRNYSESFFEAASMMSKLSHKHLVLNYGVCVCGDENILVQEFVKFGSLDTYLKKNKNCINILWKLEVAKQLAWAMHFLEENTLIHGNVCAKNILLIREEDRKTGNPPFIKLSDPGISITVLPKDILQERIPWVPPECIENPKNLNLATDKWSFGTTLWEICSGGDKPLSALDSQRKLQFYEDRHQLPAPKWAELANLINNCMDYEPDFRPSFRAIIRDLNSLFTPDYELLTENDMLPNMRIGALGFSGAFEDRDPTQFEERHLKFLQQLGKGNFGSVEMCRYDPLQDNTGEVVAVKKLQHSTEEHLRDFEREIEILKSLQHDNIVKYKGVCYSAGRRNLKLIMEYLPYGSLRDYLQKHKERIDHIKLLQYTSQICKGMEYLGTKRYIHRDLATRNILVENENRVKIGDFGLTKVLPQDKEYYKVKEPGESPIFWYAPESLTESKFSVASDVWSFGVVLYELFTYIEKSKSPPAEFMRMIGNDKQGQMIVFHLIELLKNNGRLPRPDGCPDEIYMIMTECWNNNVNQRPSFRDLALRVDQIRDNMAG
Grb2 SH2, sequence (P62993 whole entry, looked up): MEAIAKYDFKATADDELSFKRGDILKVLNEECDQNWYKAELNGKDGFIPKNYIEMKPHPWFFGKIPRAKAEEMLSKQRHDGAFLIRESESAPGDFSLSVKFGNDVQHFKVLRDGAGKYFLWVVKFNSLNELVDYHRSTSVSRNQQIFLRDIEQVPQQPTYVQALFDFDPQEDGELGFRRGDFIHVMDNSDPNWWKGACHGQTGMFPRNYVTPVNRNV
MERTK, sequence (Q12866 whole entry, looked up): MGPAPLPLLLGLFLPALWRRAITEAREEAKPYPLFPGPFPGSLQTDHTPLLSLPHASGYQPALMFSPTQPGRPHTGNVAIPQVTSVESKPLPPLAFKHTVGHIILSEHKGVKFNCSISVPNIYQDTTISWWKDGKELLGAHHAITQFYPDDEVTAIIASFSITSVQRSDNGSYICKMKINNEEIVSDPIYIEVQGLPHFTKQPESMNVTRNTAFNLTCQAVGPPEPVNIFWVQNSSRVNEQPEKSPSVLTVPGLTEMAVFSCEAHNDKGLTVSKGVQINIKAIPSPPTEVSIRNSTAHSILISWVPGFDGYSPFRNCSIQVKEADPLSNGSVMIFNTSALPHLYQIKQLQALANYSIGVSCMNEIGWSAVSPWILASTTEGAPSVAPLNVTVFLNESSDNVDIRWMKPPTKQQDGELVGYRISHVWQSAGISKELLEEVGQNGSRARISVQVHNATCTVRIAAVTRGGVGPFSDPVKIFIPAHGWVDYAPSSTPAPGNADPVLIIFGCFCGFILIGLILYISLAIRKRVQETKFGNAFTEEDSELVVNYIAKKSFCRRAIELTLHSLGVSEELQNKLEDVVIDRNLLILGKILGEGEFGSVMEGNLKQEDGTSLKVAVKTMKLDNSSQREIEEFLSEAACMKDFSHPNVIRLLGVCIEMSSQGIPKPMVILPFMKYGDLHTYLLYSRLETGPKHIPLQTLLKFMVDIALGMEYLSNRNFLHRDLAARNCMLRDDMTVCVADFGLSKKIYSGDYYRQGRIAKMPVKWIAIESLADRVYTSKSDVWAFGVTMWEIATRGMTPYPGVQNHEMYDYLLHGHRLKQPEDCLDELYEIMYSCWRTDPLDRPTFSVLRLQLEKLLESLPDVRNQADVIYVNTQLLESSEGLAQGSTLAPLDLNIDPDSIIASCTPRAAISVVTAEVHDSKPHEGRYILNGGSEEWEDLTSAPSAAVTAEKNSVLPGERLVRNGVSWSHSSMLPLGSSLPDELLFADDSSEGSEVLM
FGFR3, sequence (P22607 whole entry, looked up): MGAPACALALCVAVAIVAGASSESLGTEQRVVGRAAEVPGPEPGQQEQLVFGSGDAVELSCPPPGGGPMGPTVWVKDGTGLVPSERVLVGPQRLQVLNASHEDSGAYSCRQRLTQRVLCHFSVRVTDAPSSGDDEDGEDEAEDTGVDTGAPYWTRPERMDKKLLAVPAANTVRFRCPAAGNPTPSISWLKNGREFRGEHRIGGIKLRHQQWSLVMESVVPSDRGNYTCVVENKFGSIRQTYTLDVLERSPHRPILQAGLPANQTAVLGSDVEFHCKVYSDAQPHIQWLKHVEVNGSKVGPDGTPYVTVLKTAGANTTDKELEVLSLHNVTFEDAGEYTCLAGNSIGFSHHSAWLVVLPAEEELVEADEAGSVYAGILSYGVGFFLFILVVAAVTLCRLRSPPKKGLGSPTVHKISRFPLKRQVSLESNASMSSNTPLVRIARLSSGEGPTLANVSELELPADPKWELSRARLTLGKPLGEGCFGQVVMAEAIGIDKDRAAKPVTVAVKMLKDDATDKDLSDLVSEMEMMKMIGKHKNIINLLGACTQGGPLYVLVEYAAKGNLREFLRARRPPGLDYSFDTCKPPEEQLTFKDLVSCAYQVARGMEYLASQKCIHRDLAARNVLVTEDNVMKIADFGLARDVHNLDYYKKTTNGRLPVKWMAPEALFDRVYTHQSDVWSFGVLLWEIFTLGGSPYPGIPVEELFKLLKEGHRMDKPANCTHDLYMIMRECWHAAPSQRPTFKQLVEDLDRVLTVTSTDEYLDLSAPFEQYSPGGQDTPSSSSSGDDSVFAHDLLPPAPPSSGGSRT
Fyn, sequence (P06241 whole entry, looked up): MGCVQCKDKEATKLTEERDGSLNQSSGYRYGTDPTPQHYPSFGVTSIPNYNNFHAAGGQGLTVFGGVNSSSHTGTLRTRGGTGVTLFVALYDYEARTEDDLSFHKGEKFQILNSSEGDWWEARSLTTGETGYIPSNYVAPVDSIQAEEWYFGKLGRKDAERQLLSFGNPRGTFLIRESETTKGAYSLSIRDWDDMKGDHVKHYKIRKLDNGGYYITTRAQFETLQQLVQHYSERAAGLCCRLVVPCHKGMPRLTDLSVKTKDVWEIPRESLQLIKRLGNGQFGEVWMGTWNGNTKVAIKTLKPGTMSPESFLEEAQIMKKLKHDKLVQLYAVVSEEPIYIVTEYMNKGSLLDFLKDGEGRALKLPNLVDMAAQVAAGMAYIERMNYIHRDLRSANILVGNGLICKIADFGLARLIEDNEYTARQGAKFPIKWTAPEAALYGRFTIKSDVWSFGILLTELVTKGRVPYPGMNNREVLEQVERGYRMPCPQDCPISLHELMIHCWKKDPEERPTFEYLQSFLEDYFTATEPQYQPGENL

Sequence | SH2 binding enrichment (SHP2-C SH2) | SH2 binding enrichment (c-Src SH2) | SH2 binding enrichment (Grb2 SH2) | phosphorylation enrichment (c-Abl (mouse)) | phosphorylation enrichment (FGFR1) | phosphorylation enrichment (EPHB1) | phosphorylation enrichment (Hck) | phosphorylation enrichment (MERTK) | phosphorylation enrichment (EPHB2) | phosphorylation enrichment (Jak2) | phosphorylation enrichment (Fyn) | phosphorylation enrichment (Fer (mouse)) | phosphorylation enrichment (Fes) | phosphorylation enrichment (AncSZ) | phosphorylation enrichment (FGFR3) | phosphorylation enrichment (c-Src)
GDEVEYMLVSF [GCLC_Y53] | 0.701 | 0.407 | 0.821 | 0.677 | 3.97 | 0.665 | 1.15 | 0.473 | 0.829 | 0.976 | 0.841 | 2.43 | 1.1 | 2.31 | 3.39 | 1.16
GDNNIYVTKII [DLG1_Y349_S347N] | 0.687 | 0.546 | 0.836 | 0.701 | 0.574 | 0.525 | 1.21 | 0.461 | 0.556 | 0.942 | 0.894 | 0.595 | 0.991 | 0.806 | 0.61 | 0.93
GDYYCYLAEVA [YWHAG_Y133_R132C] | 0.862 | 0.681 | 0.851 | 5.22 | 13.5 | 13 | 4.66 | 7.27 | 14.7 | 6.33 | 4.95 | 5.61 | 1.64 | 5.32 | 12.3 | 4.14
GELQGYDIMEP [MSH2_Y863_S860L] | 0.534 | 4.99 | 0.851 | 0.658 | 0.445 | 0.554 | 0.508 | 0.419 | 0.522 | 1.13 | 0.412 | 0.471 | 1.13 | 1.23 | 0.666 | 0.436
GENTVYAQVFN [LY9_Y603_M602V] | 7.82 | 1.03 | 0.829 | 2.92 | 0.599 | 1.53 | 6.46 | 2.21 | 1.23 | 0.718 | 6.74 | 7 | 0.918 | 0.819 | 0.616 | 5.05
GFQPEYGQPAG [SYP_Y278_D277E_YF] | 0.832 | 0.405 | 0.788 | 0.586 | 0.479 | 0.501 | 0.4 | 0.424 | 0.542 | 0.723 | 0.592 | 0.506 | 0.741 | 0.685 | 0.917 | 0.671
GFRPVYSEDEQ [CHST6_Y362_YF] | 0.73 | 0.645 | 0.904 | 1.27 | 0.584 | 0.754 | 0.615 | 0.559 | 0.699 | 1.47 | 0.592 | 0.617 | 1.49 | 1.35 | 0.835 | 0.836
GFRVFYTPDSR [PTPRF_Y451_YF] | 0.861 | 0.598 | 1.17 | 0.612 | 0.52 | 0.562 | 0.564 | 0.37 | 0.448 | 1.03 | 0.468 | 0.462 | 1.19 | 0.962 | 0.64 | 0.449
GGFTCYCDGKK [PROS1_Y266_YF] | 0.591 | 0.409 | 0.779 | 0.758 | 0.457 | 0.608 | 0.484 | 0.419 | 0.515 | 0.998 | 0.485 | 0.511 | 1.19 | 1.12 | 0.865 | 0.354
GGGGSYNDFGN [HNRNPA1_Y312] | 0.659 | 0.513 | 0.745 | 0.458 | 0.471 | 0.433 | 0.474 | 0.422 | 0.39 | 0.579 | 1.17 | 0.33 | 0.791 | 0.599 | 0.5 | 0.441
GGMAEYTRLHN [EHHADH_Y4] | 0.742 | 1.29 | 0.864 | 0.532 | 0.382 | 0.494 | 0.451 | 0.378 | 0.374 | 0.691 | 0.32 | 0.359 | 0.597 | 0.609 | 0.442 | 0.421
GGQEDYDRLRP [RAC3_Y64_A59G] | 0.767 | 0.591 | 0.821 | 0.616 | 0.528 | 0.566 | 0.759 | 0.461 | 0.691 | 0.861 | 0.458 | 0.522 | 0.948 | 1.17 | 0.624 | 0.494
GIATGYLVLKE [DNMT3B_Y588] | 2.28 | 0.717 | 0.744 | 0.533 | 0.464 | 0.511 | 0.511 | 0.357 | 0.558 | 0.836 | 0.385 | 0.376 | 0.77 | 0.737 | 0.611 | 0.4
GIFEDYVEGLR [MYL6_Y89_T85I_YF] | 0.645 | 0.462 | 0.866 | 0.857 | 0.567 | 0.787 | 0.484 | 0.393 | 0.7 | 1.22 | 0.7 | 0.607 | 1.17 | 1.25 | 0.793 | 0.536
GKTQQYECKWY [BCR_Y751_D752E] | 0.584 | 0.735 | 0.677 | 0.681 | 0.499 | 0.507 | 0.447 | 0.487 | 0.6 | 0.97 | 0.443 | 0.549 | 1.05 | 0.936 | 0.642 | 0.522
GLAELYEFQKK [CKAP5_Y1854_K1857Q_YF] | 0.473 | 0.795 | 0.666 | 0.428 | 0.539 | 0.59 | 1.23 | 0.526 | 0.564 | 0.58 | 0.64 | 0.656 | 0.857 | 0.973 | 0.94 | 0.937
GLAKGYIDPET [CSNK1G2_Y195_E194G] | 0.922 | 0.5 | 0.823 | 0.454 | 0.476 | 0.509 | 0.513 | 0.472 | 0.588 | 0.694 | 0.558 | 0.482 | 0.795 | 1.04 | 0.48 | 0.554

Sequence | SH2 binding enrichment (SHP2-C SH2) | SH2 binding enrichment (c-Src SH2) | SH2 binding enrichment (Grb2 SH2) | phosphorylation enrichment (c-Abl (mouse)) | phosphorylation enrichment (FGFR1) | phosphorylation enrichment (EPHB1) | phosphorylation enrichment (Hck) | phosphorylation enrichment (MERTK) | phosphorylation enrichment (EPHB2) | phosphorylation enrichment (Jak2) | phosphorylation enrichment (Fyn) | phosphorylation enrichment (Fer (mouse)) | phosphorylation enrichment (Fes) | phosphorylation enrichment (AncSZ) | phosphorylation enrichment (FGFR3) | phosphorylation enrichment (c-Src)
GLRYGYGGLGG [KRTAP20-2_Y15_V17G] | 0.557 | 0.568 | 0.826 | 0.431 | 0.339 | 0.349 | 0.329 | 0.349 | 0.31 | 0.44 | 0.349 | 0.334 | 0.564 | 0.507 | 0.412 | 0.398
GLTSTYAGIRK [ROBO1_Y932] | 14.7 | 1.28 | 0.895 | 0.724 | 0.342 | 0.303 | 6.69 | 0.497 | 0.492 | 0.548 | 1.46 | 0.521 | 0.66 | 0.525 | 0.372 | 1.52
GMRHGHGVRQS [JPH2_Y141_Y141H] | 1.31 | 1 | 1.27 | 1.28 | 0.471 | 0.775 | 0.495 | 0.462 | 0.45 | 0.975 | 0.419 | 0.529 | 0.803 | 0.646 | 0.696 | 0.529
GMTLSYLFREL [NDUFS8_Y74_P79L] | 1.47 | 1.24 | 1.64 | 0.603 | 0.53 | 0.514 | 0.487 | 0.447 | 0.55 | 0.758 | 0.451 | 0.431 | 0.905 | 0.888 | 0.604 | 0.383
GMTRNYIIFIE [BCO2_Y294] | 1.32 | 1.18 | 1.34 | 0.49 | 0.599 | 0.649 | 0.563 | 0.487 | 0.67 | 0.885 | 0.567 | 0.447 | 0.921 | 0.96 | 0.745 | 0.498
GPIEVYLCPEE [E2F3_Y349] | 0.754 | 0.541 | 0.817 | 0.724 | 0.462 | 0.696 | 0.549 | 0.437 | 0.533 | 1.29 | 0.525 | 0.458 | 1.08 | 1.18 | 0.743 | 0.683
GPRSLYNGLVA [UCP2_Y79] | 0.661 | 0.621 | 0.776 | 0.555 | 0.396 | 0.385 | 1.45 | 0.381 | 0.36 | 0.502 | 0.427 | 0.386 | 0.543 | 0.488 | 0.486 | 0.509
GPSTPYTKSKC [SMARCC2_Y324_R329C] | 1.06 | 0.76 | 1.24 | 0.55 | 0.362 | 0.35 | 0.395 | 0.396 | 0.408 | 0.573 | 0.403 | 0.393 | 0.534 | 0.584 | 0.479 | 0.36
GRDQPYSGAGD [TYRO3_Y828] | 0.86 | 0.567 | 0.894 | 0.359 | 0.559 | 0.293 | 0.445 | 0.383 | 0.457 | 0.508 | 0.623 | 0.31 | 0.765 | 0.442 | 0.357 | 0.356
GRFSGYKSKHG [EPHA3_Y570_C568S] | 0.631 | 0.92 | 0.857 | 0.65 | 0.312 | 0.34 | 0.361 | 0.397 | 0.256 | 0.438 | 0.407 | 0.278 | 0.438 | 0.39 | 0.392 | 0.364
GRTNIYNNKKD [SLC26A3_Y520_K521N] | 0.754 | 0.634 | 1.04 | 0.433 | 0.324 | 0.311 | 0.365 | 0.301 | 0.339 | 0.691 | 0.347 | 0.326 | 0.632 | 0.418 | 0.349 | 0.435
GRVYVYHLSEQ [ITGAE_Y551_R552H] | 6.94 | 0.907 | 1.01 | 0.646 | 0.559 | 0.645 | 0.602 | 0.386 | 0.548 | 0.994 | 0.835 | 0.531 | 1.13 | 1.03 | 0.712 | 0.799
GTCGGYCSVLG [RAB18_Y202_A198T] | 2.08 | 8.16 | 0.842 | 0.401 | 0.37 | 0.344 | 0.388 | 0.527 | 0.353 | 0.451 | 0.397 | 0.389 | 0.488 | 0.532 | 0.488 | 0.42
GVIRHSVVCST [BTK_Y334_Y334S] | 0.637 | 0.586 | 0.996 | 0.607 | 0.453 | 0.508 | 0.436 | 0.446 | 0.456 | 0.67 | 0.42 | 0.477 | 0.82 | 0.783 | 0.51 | 0.45
GVKLTYGDAQS [SLC28A1_Y404_N409S] | 0.646 | 0.467 | 0.798 | 0.52 | 0.429 | 0.472 | 0.456 | 0.335 | 0.34 | 0.46 | 0.426 | 0.373 | 0.646 | 0.599 | 0.453 | 0.349
GVRYIYTIDGS [DCX_Y105] | 17.4 | 0.67 | 0.943 | 0.687 | 0.487 | 0.6 | 0.783 | 0.405 | 0.552 | 0.937 | 1.76 | 0.415 | 1.31 | 1.09 | 0.743 | 1.86
